Measured values reported in PMC10075959 (Science Advances, 2023).
Where two headings read alike, the source gives them in different places.

B1: 229E-related bat coronavirus nucleocapsid LRS peptide 170-221 (peptide)
peptide: NERLPKSNSKQSNQDDIMAAVAAALEKLGFERPNDASQPQKKQNKGTPKPSR
B2: MERS nucleocapsid LRS peptide 197-238 (peptide)
peptide: not shown

Tests used:
AUC = biological target: the molecule itself; test: AUC
[1] = biological target: the molecule itself; test: AUC + other: circular dichroism
[2] = biological target: the molecule itself; test: AUC + other: circular dichroism; remark: listed apart in the source

Protein	stoichiometry N (AUC)	Kd [1] [µM]	Kd [2] [µM]
MAGNGGDAALALLLLDRLNQLESKMSGKGQQQQGQTV [SARS-CoV-2 N-protein leucine-rich sequence peptide N:210-246 (NLRS)]	3	810	–
B1	–	–	290
RQPASTVKPDMAEEIAALVLAKLGKDAGQPKQV (also called murine hepatitis virus) [MHV nucleocapsid LRS peptide 223-255]	–	–	800
B2	–	–	110
TRSDSNQSSSDLVAAVTLALKNLGFDNQSKSPSSSGT (also called human coronavirus NL63) [NL63 nucleocapsid LRS peptide 174-210]	–	–	140
MASGGGETALALLLLDRLNQLESKVSGKGQQQ [SARS-CoV-1 nucleocapsid LRS peptide 211-242]	–	–	500
